First the molecules themselves.
B1: BubR1_(705–1050), pseudokinase domain of BubR1 (domain or fragment, human, UniProt O60566 705-1050, looked up)
chain: EKLELTNETSENPTQSPWCSQYRRQLLKSLPELSASAELCIEDRPMPKLEIEKEIELGNEDYCIKREYLICEDYKLFWVAPRNSAELTVIKVSSQPVPWDFYINLKLKERLNEDFDHFCSCYQYQDGCIVWHQYINCFTLQDLLQHSEYITHEITVLIIYNLLTIVEMLHKAEIVHGDLSPRCLILRNRIHDPYDCNKNNQALKIVDFSYSVDLRVQLDVFTLSGFRTVQILEGQKILANCSSPYQVDLFGIADLAHLLLFKEHLQVFWDGSFWKLSQNISELKDGELWNKFFVRILNANDEATVSVLGELAAEMNGVFDTTFQSHLNKALWKVGKLTSPGALLFQ
notes: source: E. coli BL21-CodonPlus (DE3)-RIL (overnight at 18°C), purified (HisTrap, 3C protease, SEC); not shown: His6, N-terminal, cleaved
B2: CENP-E_(2055–2358), minimal kinetochore-targeting domain of CENP-E (domain or fragment, human, UniProt Q02224-1 2055-2358, looked up)
chain: RDQFIATLREMIARDRQNHQVKPEKRLLSDGQQHLTESLREKCSRIKELLKRYSEMDDHYECLNRLSLDLEKEIEFQKELSMRVKANLSLPYLQTKHIEKLFTANQRCSMEFHRIMKKLKYVLSYVTKIKEEQHESINKFEMDFIDEVEKQKELLIKIQHLQQDCDVPSRELRDLKLNQNMDLHIEEILKDFSESEFPSIKTEFQQVLSNRKEMTQFLEEWLNTRFDIEKLKNGIQKENDRICQVNNFFNNRIIAIMNESTEFEERSATISKEWEQDLKSLKEKNEKLFKNYQTLKTSLASGAQ
notes: Monomer by SEC-MALS; source: E. coli BL21-CodonPlus (DE3)-RIL, purified (HisTrap, Superdex 200)
B3: CENP-E_(2091–2358)–GST (domain or fragment, human, UniProt Q02224-1 2091-2358, looked up)
chain: ESLREKCSRIKELLKRYSEMDDHYECLNRLSLDLEKEIEFQKELSMRVKANLSLPYLQTKHIEKLFTANQRCSMEFHRIMKKLKYVLSYVTKIKEEQHESINKFEMDFIDEVEKQKELLIKIQHLQQDCDVPSRELRDLKLNQNMDLHIEEILKDFSESEFPSIKTEFQQVLSNRKEMTQFLEEWLNTRFDIEKLKNGIQKENDRICQVNNFFNNRIIAIMNESTEFEERSATISKEWEQDLKSLKEKNEKLFKNYQTLKTSLASGAQ
notes: no own measurement; not shown: GST, C-terminal, kept
B4: CENP-E_(2069–2358)–GST (domain or fragment, human, UniProt Q02224-1 2069-2358, looked up)
chain: DRQNHQVKPEKRLLSDGQQHLTESLREKCSRIKELLKRYSEMDDHYECLNRLSLDLEKEIEFQKELSMRVKANLSLPYLQTKHIEKLFTANQRCSMEFHRIMKKLKYVLSYVTKIKEEQHESINKFEMDFIDEVEKQKELLIKIQHLQQDCDVPSRELRDLKLNQNMDLHIEEILKDFSESEFPSIKTEFQQVLSNRKEMTQFLEEWLNTRFDIEKLKNGIQKENDRICQVNNFFNNRIIAIMNESTEFEERSATISKEWEQDLKSLKEKNEKLFKNYQTLKTSLASGAQ
notes: no own measurement of the oligomeric state; source: E. coli BL21-CodonPlus (DE3)-RIL, purified; not shown: GST, C-terminal, kept
B5: CENP-E_(2055–2608), kinetochore- and centrosome-targeting domain of CENP-E (domain or fragment, human, UniProt Q02224-1 2055-2608, looked up)
chain: RDQFIATLREMIARDRQNHQVKPEKRLLSDGQQHLTESLREKCSRIKELLKRYSEMDDHYECLNRLSLDLEKEIEFQKELSMRVKANLSLPYLQTKHIEKLFTANQRCSMEFHRIMKKLKYVLSYVTKIKEEQHESINKFEMDFIDEVEKQKELLIKIQHLQQDCDVPSRELRDLKLNQNMDLHIEEILKDFSESEFPSIKTEFQQVLSNRKEMTQFLEEWLNTRFDIEKLKNGIQKENDRICQVNNFFNNRIIAIMNESTEFEERSATISKEWEQDLKSLKEKNEKLFKNYQTLKTSLASGAQVNPTTQDNKNPHVTSRATQLTTEKIRELENSLHEAKESAMHKESKIIKMQKELEVTNDIIAKLQAKVHESNKCLEKTKETIQVLQDKVALGAKPYKEEIEDLKMKLVKIDLEKMKNAKEFEKEISATKATVEYQKEVIRLLRENLRRSQQAQDTSVISEHTDPQPSNKPLTCGGGSGIVQNTKALILKSEHIRLEKEISKLKQQNEQLIKQKNELLSNNQHLSNEVKTWKERTLKREAHKQVTCENSPKS
notes: Dimer by SEC-MALS; Aggregated in 150 mM NaCl and was kept in 500 mM NaCl; Cloned in pET-3aTr; also called longer dimeric kinetochore-targeting domain; source: E. coli BL21-CodonPlus (DE3)-RIL, purified (HisTrap, Superdex 200 in 500 mM NaCl)

For the data set “CENP-E_(2091–2358)–GST”, the target named is B3. The experiment in a line: ITC; 276 µM BubR1 705-1050 titrated into 25 µM CENP-E 2091-2358-GST at 37°C; 20 mM HEPES pH 7.5, 150 mM NaCl, 1 mM EDTA, 0.005% Tween-20, 0.5 mM TCEP; one set of sites. Particulars: both partners purified. (In ITC the heat of successive injections is recorded.)
In data set [1] the target is B1. The experiment in a line: SEC; co-elution on Superdex Increase 200 10/300 GL in binding buffer (20 mM HEPES pH 7.5, 150 mM NaCl, 1 mM EDTA, 1 mM DTT); proteins mixed in equimolar ratio at ~7 µM; fractions on Coomassie gels. Particulars: both partners purified. Background: SEC sorts molecules by how far they enter the pores of the column.
The target in data set [2] is B1. The experiment in a line: ITC; 276 µM BubR1 705-1050 titrated into 25 µM CENP-E 2091-2358-GST at 37°C; 20 mM HEPES pH 7.5, 150 mM NaCl, 1 mM EDTA, 0.005% Tween-20, 0.5 mM TCEP; one set of sites. Conditions: both partners purified.
Data set [3] deals with the molecule itself. The experiment in a line: SEC-MALS; 100 µl at 1 mg/ml on Superdex-200 10/300 GL Increase, 22°C, gel filtration buffer (20 mM HEPES pH 7.5, 300 mM NaCl, or 500 mM for CENP-E 2055-2608, 1 mM EDTA, 1 mM DTT).
Data set [4] concerns the target T1, BubR1_(432–1050), C terminus of BubR1 containing the pseudokinase domain (human, UniProt O60566 432-1050).
T1 construct: source: purified recombinant
The experiment in a line: SEC; co-elution on Superdex Increase 200 10/300 GL in binding buffer (20 mM HEPES pH 7.5, 150 mM NaCl, 1 mM EDTA, 1 mM DTT); proteins mixed in equimolar ratio at ~7 µM; fractions on Coomassie gels. Conditions: both partners purified.

The term stoichiometry N denotes the number of molecules, sites or subunits per partner or assembly. For B1, in the data set with CENP-E_(2091–2358)–GST, the dH is -5.1 kcal/mol and the “stoichiometry N” value worked out at 0.908. In the case of B2, the binding result in data set [1] was “binds”. By Kd is commonly meant a measure of binding affinity in units of concentration. With B3, the Kd in data set [2] was found to be 318 nM. On to B4, for which, in data set [1], the binding result was “binds”. Turning to B5, the “stoichiometry N” value in data set [3] came out at 2. For the same molecule, in data set [4], the binding result was “binds”.

The values are drawn from PMC7473641, “The C-terminal helix of BubR1 is essential for CENP-E-dependent chromosome alignment” (Journal of Cell Science, 2020).
